The target in test [1] is WN peptide HLA-E single chain trimer (soluble) (human). The experiment in a line: SPR.
Test [2] deals with VL9 peptide HLA-E single chain trimer (soluble) (human). As to the kind of experiment: SPR. (Surface plasmon resonance follows binding to a sensor surface in real time, without labels.)

Consider “CD94/NKG2A single-chain fusion protein (NKG2A ectodomain-GGSGGS-CD94 ectodomain), soluble, for SPR (from UniProt P26715 94-233; Q13241 32-179) (receptor)”, for which the Kd (commonly the constant that tells how readily two partners part at equilibrium) in test [1] amounted to 41.5 µM; in test [2], 8.2 µM.
“CD94/NKG2C single-chain fusion protein (NKG2C ectodomain-GGSGGS-CD94 ectodomain), soluble, for SPR (from UniProt P26717 94-231; Q13241 32-179) (receptor)”: the Kd in test [1] is 17.4 µM; in test [2], 21.4 µM.

The values above are taken from paper doi:10.1101/2022.08.03.502719.
